According to US20150182631A1, “SYSTEM FOR […]-BASED ACTIVE INGREDIENTS” (Centre National De La Recherche Scientifique-CNRS, priority 2012, published 2015):

Tests used:
[1] = Confinement of fluorescein in the lectin cavity; settings: 4 days at ambient temperature, free fluorescein eliminated again
Protocol: The confinement experiments are carried out by incubating the wild-type protein (XCL) or the mutants (A38C) with the molecule to be tested. In order to carry out the control experiments with the mutant A38C, an oxidation step is carried out in the presence of GSSG in a phosphate buffer 50 mM, 100 mM NaCl, pH 7.2, OVN. The GSSG is then eliminated on a PD-10 sephadex G-25M column (GE Healthcare) pre-balanced in a phosphate buffer 50 mM, 100 mM NaCl, pH 8.5. The eluate is concentred at 1 ml on Vivaspin 15R 30,000 MWCO (Sartorius stedim). A batch of A38C is reduced to TCEP (under argon) with adding of NaOH for a final pH of 8.5. […] The quantity of fluorescein is measured by using an absorption coefficient of e511 nm=75,000 cm^−1 M^−1. The concentrations of XCL and of A38C after the confinement are calculated with e278 nm=[…]. The percentage of confinement is calculated by forming the ratio of the fluorescein/protein concentrations.
In the case with XCL, the inventors incubated the protein (15 μM) with fluorescein (10 mM) and then separated the protein from the non-confined molecules of fluorescein by two successive gel filtration columns. Beforehand, the inventors verified that if these two columns on the fluorescein solution are carried out at 10 mM, no residual free fluorescein is detected. […]

[2] = Size exclusion chromatography at variable concentration, tetramer equilibrium; assay type: physicochemical
Protocol: The size exclusion chromatography experiments were carried out on a GE-Healthcare Superose 12 PC 3.2/30 column. The columns are pre-balanced in the buffer tested, namely phosphate buffer 50 mM, 100 mM NaCl, pH7.2 or pH 4.4 in the absence or in the presence of 0.003% of SDS. The flow rate is 0.5 mL/min. The BSA and the RNase A are used as a size marker.
In order to confirm the data obtained in FRET, the displacement of the balance was evaluated by gel exclusion chromatography. Bovine Serum Albumin (BSA) and ribonuclease A were used to calibrate the column. Elution volumes of 12.6 ml and of 15.5 ml were obtained respectively. At a strong concentration (here 30 μM), XCL has an elution volume of 13.2 ml close to the elution volume of BSA as expected for tetrameric species. […] However, it was shown by digital simulation that according to the association rate, the rate of dissociation, the flow rate and separation characteristics of the column, two populations of molecules that are exchanging could lead to a single peak via size exclusion chromatography (Yu et al., (2006)). The inventors carried out several injections by using variable concentrations of XCL and observed that indeed a single peak was obtained. However this peak is displaced to longer elution volumes as the concentration decreases, indicating a smaller molecular weight.

[3] = Balanced FRET, exchange of monomers; assay type: physicochemical; settings: 1 h incubation, pH 8.5
Protocol: Fluorescence energy transfer was used to reveal the exchange of the XCL monomers. The exchange reaction is initiated by mixing the same volume of XCL-RITC (1 μM or only the buffer as a reference) and of XCL-FITC (1 μM) at 25° C. in 50 mM of phosphate buffer, 100 mM NaCl, pH 8.5. After one hour of incubation, the emission spectrum of the sample excited at 490 nm is recorded by spectrofluorimetry (Photon Technology International QM-4). The same experiments were carried out with A38C-RITC and A38C-FITC.
The oligomerization balance of the XCL protein was characterised by the measurement of the appearance of resonance energy transfer of the Förster type (FRET) between two populations of XCL labelled separately either with FITC (Fluorescein IsoThioCyanate) or with RITC (Rhodamine IsoThioCyanate).
In this same figure, is also shown the spectrum obtained by mixing the labelled protein, either by the donor or by the acceptor (dotted line curve). This spectrum was deconvoluted, which gives the spectra shown as a dotted line in FIG. 2A.
For the purposes of comparison, the same experiment was carried out with the variant A38C. This variant is covalently bonded by two additional disulphide bridges. A perfectly superimposable spectrum was obtained after mixing donor and acceptor labelled proteins and incubation of this mixture for 1 h at ambient temperature (dotted lines of FIG. 3B).

B1: XCL: Xerocomus chrysenteron lectin, fungal sporocarp lectin forming a tetramer with central cavity, SEQ ID NO: 1 (protein)
chain: MSYSITLRVYQTNRDRGYFSIVEKTVWHFANGGTWSEANGAHTLTQGGSGTSGVLRFLSTKGERITVAVGVHNYKRWCDVVTGLKPDETALVINPQYYNNGGRDYVREKQLAEYSVTSAIGTKVEVVYTVAEGNNLEANVIFS
modifications: Xerocomus chrysenteron
Question: For B1, which “confinement rate after incubation” value [1] is on record?
Answer: remained unchanged

Question: And the “concentration of the transition in elution volume” value [2]?
Answer: close to the micromolar

Question: What about the “FRET between FITC- and RITC-labelled protein after mixing (monomer redistribution)” value [3] of the same molecule?
Answer: monomers have been redistributed
